Experimental data from the supplement of paper PMC10065799, “High-throughput profiling of sequence recognition by tyrosine kinases and SH2 domains using bacterial peptide display” (eLife, 2023).

Assays:
Grb2 SH2 = Grb2 SH2 (UniProt P62993); experiment: SH2 binding enrichment of the phosphorylated peptide, bacterial display (enrichment ratio); higher = better substrate or ligand; peptides without Tyr show the background
c-Src SH2 = experiment: as above
SHP2-C SH2 = experiment: as above
EPHB2 = EPHB2 (UniProt P29323); experiment: phosphorylation enrichment, bacterial display (enrichment ratio); higher = better substrate or ligand; peptides without Tyr show the background
EPHB1 = EPHB1 (UniProt P54762); experiment: as above
Chain of EPHB1 (P54762 whole entry, looked up): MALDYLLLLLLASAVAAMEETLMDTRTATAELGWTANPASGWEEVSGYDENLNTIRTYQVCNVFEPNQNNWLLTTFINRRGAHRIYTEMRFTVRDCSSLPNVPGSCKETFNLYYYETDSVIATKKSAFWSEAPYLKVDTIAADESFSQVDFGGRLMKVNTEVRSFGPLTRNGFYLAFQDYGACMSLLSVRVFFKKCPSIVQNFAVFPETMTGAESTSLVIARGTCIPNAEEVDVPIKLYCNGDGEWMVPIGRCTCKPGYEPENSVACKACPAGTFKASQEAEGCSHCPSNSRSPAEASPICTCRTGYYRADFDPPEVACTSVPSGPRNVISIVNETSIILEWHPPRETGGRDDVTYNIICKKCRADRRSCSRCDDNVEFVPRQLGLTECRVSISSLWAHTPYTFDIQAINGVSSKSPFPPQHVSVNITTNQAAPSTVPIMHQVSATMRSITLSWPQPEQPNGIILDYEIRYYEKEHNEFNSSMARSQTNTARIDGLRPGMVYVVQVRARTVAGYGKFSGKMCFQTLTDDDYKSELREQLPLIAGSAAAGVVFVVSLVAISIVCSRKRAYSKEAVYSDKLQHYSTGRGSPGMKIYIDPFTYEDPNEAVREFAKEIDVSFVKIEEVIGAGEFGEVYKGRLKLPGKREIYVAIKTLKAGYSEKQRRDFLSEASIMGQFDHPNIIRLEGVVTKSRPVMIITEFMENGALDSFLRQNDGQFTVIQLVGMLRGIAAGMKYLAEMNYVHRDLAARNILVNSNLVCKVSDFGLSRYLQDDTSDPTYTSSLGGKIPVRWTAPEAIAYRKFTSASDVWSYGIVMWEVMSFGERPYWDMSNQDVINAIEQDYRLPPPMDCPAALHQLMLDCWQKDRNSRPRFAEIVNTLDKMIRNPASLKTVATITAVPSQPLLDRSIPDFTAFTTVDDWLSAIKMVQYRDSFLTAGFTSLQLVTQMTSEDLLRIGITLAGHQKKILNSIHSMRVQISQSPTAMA

FGFR3 = FGFR3 (UniProt P22607); experiment: as above
Chain of FGFR3 (P22607 whole entry, looked up): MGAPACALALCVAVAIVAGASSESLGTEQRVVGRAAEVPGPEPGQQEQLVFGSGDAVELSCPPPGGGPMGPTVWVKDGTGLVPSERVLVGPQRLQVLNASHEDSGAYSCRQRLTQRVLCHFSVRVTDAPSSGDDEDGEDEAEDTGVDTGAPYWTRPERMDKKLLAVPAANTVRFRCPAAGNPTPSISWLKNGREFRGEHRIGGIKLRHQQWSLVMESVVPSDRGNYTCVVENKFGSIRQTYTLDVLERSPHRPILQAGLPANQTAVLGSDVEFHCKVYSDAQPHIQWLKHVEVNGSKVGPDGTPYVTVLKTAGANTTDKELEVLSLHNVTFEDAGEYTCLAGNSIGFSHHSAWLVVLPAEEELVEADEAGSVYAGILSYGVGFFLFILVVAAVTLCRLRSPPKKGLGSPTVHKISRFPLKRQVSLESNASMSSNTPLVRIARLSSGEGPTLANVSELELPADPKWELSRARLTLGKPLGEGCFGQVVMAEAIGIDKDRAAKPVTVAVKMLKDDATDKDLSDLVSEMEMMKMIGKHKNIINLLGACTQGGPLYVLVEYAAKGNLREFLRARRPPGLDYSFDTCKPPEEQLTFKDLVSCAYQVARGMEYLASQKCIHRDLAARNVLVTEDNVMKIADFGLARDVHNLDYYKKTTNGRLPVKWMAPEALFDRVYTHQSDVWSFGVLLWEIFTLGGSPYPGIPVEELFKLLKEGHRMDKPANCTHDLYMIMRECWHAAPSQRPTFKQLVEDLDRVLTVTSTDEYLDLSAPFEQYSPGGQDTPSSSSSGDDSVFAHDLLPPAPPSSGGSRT

MERTK = MERTK (UniProt Q12866); experiment: as above
Chain of MERTK (Q12866 whole entry, looked up): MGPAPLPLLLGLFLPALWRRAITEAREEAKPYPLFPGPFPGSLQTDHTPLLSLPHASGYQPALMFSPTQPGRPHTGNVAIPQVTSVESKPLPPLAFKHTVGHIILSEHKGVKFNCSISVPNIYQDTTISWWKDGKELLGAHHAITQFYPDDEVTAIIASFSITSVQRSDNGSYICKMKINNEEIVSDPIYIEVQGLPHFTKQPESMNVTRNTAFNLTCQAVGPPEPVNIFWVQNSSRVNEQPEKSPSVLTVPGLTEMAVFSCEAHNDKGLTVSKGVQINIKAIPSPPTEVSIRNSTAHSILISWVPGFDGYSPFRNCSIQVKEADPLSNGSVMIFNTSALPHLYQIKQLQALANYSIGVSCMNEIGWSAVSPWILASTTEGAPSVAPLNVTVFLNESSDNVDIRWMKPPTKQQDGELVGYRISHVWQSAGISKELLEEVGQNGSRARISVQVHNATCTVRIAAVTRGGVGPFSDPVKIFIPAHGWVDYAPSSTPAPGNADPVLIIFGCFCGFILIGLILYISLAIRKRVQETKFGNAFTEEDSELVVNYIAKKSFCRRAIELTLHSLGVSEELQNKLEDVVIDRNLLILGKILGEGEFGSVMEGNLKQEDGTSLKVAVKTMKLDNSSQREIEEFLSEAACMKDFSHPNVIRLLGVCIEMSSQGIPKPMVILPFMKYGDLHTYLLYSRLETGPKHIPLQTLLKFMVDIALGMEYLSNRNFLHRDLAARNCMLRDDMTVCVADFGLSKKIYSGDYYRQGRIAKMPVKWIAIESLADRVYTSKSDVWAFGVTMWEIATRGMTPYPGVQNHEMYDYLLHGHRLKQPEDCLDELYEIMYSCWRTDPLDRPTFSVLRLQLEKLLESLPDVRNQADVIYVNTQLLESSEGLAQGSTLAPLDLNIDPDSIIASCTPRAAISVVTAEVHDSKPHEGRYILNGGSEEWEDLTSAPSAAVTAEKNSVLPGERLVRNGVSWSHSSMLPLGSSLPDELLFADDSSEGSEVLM

c-Src = experiment: as above
c-Abl (mouse) = experiment: as above
Hck = Hck (UniProt P08631); experiment: as above
Chain of Hck (P08631 whole entry, looked up): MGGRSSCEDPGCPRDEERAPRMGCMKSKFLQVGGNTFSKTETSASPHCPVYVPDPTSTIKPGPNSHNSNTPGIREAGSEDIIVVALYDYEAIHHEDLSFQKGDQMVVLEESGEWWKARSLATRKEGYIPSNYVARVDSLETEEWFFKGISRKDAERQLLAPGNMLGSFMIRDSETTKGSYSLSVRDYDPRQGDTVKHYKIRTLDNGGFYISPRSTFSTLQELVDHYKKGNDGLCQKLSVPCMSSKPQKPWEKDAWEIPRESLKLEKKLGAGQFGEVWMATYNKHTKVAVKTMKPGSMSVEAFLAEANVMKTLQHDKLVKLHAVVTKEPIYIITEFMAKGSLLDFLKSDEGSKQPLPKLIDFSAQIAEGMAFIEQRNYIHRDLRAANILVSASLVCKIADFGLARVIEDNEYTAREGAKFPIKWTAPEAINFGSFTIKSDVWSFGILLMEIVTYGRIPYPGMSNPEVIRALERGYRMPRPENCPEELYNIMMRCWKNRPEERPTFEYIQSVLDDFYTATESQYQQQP

Jak2 = Jak2 (UniProt O60674); experiment: as above
Fes = Fes (UniProt P07332); experiment: as above
Fyn = Fyn (UniProt P06241); experiment: as above
Chain of Fyn (P06241 whole entry, looked up): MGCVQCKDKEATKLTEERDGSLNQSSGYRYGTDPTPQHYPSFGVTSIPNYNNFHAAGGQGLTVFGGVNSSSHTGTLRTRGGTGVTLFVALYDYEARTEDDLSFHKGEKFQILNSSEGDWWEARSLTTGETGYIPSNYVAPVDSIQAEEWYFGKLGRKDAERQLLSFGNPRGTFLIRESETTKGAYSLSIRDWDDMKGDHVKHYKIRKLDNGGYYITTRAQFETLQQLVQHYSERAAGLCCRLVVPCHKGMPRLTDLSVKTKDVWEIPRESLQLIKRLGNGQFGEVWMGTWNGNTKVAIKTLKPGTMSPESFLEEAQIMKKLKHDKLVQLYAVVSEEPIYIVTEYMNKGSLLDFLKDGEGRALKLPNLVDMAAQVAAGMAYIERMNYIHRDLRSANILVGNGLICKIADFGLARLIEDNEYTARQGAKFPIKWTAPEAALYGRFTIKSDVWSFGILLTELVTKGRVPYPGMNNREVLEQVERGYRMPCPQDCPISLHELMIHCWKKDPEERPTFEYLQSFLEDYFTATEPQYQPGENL

Fer (mouse) = experiment: as above
AncSZ = experiment: as above
FGFR1 = FGFR1 (UniProt P11362); experiment: as above
Chain of FGFR1 (P11362 whole entry, looked up, the tested form may be a part): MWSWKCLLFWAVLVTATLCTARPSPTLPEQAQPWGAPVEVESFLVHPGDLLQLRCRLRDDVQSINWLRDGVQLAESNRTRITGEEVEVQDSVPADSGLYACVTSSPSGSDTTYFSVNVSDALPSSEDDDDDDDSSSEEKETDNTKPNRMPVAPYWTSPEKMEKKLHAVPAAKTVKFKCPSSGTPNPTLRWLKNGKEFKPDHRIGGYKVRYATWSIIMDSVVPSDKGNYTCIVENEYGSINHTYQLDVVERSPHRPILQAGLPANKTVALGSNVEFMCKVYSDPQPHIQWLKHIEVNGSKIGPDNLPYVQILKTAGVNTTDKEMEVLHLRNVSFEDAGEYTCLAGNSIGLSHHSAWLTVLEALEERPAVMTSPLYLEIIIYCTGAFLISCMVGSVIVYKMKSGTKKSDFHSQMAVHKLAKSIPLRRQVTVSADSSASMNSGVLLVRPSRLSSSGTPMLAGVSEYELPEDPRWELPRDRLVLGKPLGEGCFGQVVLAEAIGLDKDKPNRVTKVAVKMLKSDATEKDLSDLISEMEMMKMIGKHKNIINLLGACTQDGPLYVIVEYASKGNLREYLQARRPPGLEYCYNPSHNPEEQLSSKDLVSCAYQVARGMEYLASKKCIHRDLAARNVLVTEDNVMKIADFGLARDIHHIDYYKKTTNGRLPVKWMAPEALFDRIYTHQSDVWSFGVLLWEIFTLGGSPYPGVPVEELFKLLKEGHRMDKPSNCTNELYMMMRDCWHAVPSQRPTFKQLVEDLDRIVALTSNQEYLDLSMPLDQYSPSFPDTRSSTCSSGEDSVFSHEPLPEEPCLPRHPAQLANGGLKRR
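For SH2 binding enrichment of the phosphorylated peptide, bacterial display in this document: peptide library displayed on the E. coli surface as eCPX fusions, selected cells deep-sequenced, score is each peptide's frequency after selection divided by its frequency in the input.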
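For phosphorylation enrichment, bacterial display in this document: 11-residue human phosphosite peptides and single-mutation variants displayed on the E. coli surface, counted by deep sequencing, each peptide's frequency after selection divided by its frequency in the unselected input library; frequency after pTyr selection over input frequency; kinase dosed for 20-30% of maximal phosphorylation in three min.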

Chain of Grb2 SH2 (P62993 whole entry, looked up): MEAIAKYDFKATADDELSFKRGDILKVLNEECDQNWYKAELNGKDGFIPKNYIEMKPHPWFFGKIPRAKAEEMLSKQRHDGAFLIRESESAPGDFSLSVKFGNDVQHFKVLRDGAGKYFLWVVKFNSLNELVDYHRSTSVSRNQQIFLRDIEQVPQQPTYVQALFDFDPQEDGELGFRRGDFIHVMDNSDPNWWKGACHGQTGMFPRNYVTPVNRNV

| Sequence | SH2 binding enrichment (Grb2 SH2) | SH2 binding enrichment (c-Src SH2) | SH2 binding enrichment (SHP2-C SH2) | phosphorylation enrichment (EPHB2) | phosphorylation enrichment (EPHB1) | phosphorylation enrichment (FGFR3) | phosphorylation enrichment (MERTK) | phosphorylation enrichment (c-Src) | phosphorylation enrichment (c-Abl (mouse)) | phosphorylation enrichment (Hck) | phosphorylation enrichment (Jak2) | phosphorylation enrichment (Fes) | phosphorylation enrichment (Fyn) | phosphorylation enrichment (Fer (mouse)) | phosphorylation enrichment (AncSZ) | phosphorylation enrichment (FGFR1) |
| --- | --- | --- | --- | --- | --- | --- | --- | --- | --- | --- | --- | --- | --- | --- | --- | --- |
| EIASHYRHLLR [ZBTB46_Y14_T11A] | 0.759 | 0.522 | 0.794 | 0.42 | 0.357 | 0.528 | 0.421 | 0.421 | 0.415 | 0.573 | 0.703 | 0.585 | 0.428 | 0.516 | 0.597 | 0.416 |
| EILLSYLRTGY [TGM1_Y365] | 1.17 | 0.845 | 1.14 | 0.612 | 0.544 | 0.749 | 0.413 | 0.462 | 0.922 | 0.536 | 1.4 | 1.1 | 0.524 | 0.548 | 1.06 | 0.559 |
| EILLSYPRTGF [TGM1_Y365_L366P_YF] | 0.821 | 0.528 | 0.83 | 0.533 | 0.562 | 0.555 | 0.411 | 0.356 | 0.515 | 0.534 | 0.872 | 0.935 | 0.541 | 0.397 | 0.695 | 0.488 |
| ELELLYLDRNS [NYX_Y284] | 1.03 | 0.59 | 0.7 | 0.519 | 0.518 | 0.634 | 0.347 | 0.515 | 0.573 | 0.551 | 0.761 | 0.904 | 0.494 | 0.408 | 0.934 | 0.493 |
| EMFNPYFGLFE [NEDD4L_Y679_YF] | 1.53 | 0.743 | 1.1 | 1.88 | 2.32 | 1.68 | 3.52 | 7.31 | 1.14 | 6.01 | 8.21 | 1.21 | 7.38 | 2.66 | 1.52 | 1.94 |
| ENELTYYCYKK [CD59_Y86_C89Y] | 0.793 | 0.45 | 0.65 | 0.752 | 0.794 | 1.53 | 1.36 | 5.18 | 6.18 | 4.79 | 2.25 | 1.69 | 4.74 | 0.685 | 1.92 | 1.68 |
| EPSVDYCVVKI [CAD_Y735] | 1.11 | 0.684 | 1.22 | 1.95 | 2.83 | 1.71 | 0.529 | 0.618 | 0.774 | 0.664 | 1.1 | 1.11 | 0.577 | 1.26 | 1.57 | 2.25 |
| EPVSDYINASI [PTPN11_Y304_N308S] | 1.06 | 0.512 | 0.593 | 0.566 | 0.608 | 0.651 | 0.494 | 0.526 | 0.909 | 0.49 | 0.953 | 1.03 | 0.385 | 0.5 | 1.05 | 0.569 |
